In the supplement of paper PMC10567573:

B1: PKD2L1 (parent)
chain: VFIFYYVVEEILELHIHRLRYLSS
B2: KRT18 (parent)
chain: RVRSLETENRRLESKIREHLEKKG

Variants of: B1
Experiment: protein stability index of a GFP-peptide fusion (GPS, HEK-293T) (PSI 1-6); higher = more stable
Conditions: c terminus: a fixed tail appended
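Note: lentivirally expressed fusions sorted by FACS into six bins by GFP to DsRed ratio, PSI derived from sequencing read proportions per bin multiplied by bin number.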

Protein stability index: each site, then its substitutions
F2: Y 3.06 | I 3.92 | K 2.56 | M 4.81 | G 3.34 | A 1.52 | L 2.11 | R 3.23 | P 2 | H 1.63 | N 3.7 | Q 3.67 | E 1.5 | S 2.65 | T 3.77
I11: G 2.73 | E 3.87 | V 3.46 | D 2.57 | T 2.64 | P 1.89 | Y 2.68 | M 2.46 | K 2.51 | N 3.75 | Q 3.96 | S 3.09 | H 1.24 | F 3.73 | C 4.54
Y5: S 2.86 | K 3.67 | G 1.31 | M 2.79 | W 2.24 | T 2.27 | E 2.14 | N 2.63 | D 3.1 | F 2.11 | H 3.91 | P 1.66
V8: I 3.22 | Q 1.9 | F 3.06 | W 2.57 | D 1.41 | G 4.19 | N 2.16 | H 2.51 | T 1.93 | M 3.67 | L 2.74
V1: C 1.97 | N 2.89 | R 2.23 | H 2.21 | K 2.63 | F 1.49 | P 2.44 | S 1.97 | L 2.15 | W 2.35 | G 3 | Y 2.76
V7: Y 1.75 | N 2.13 | I 2.11 | W 2.54 | D 3.12 | C 3.58 | F 1.93 | A 4.67 | H 3.16 | Q 3.24 | P 2.85 | S 4.39 | G 2.25 | K 3.16
L12: G 1.89 | K 2.59 | F 3.21 | M 2.73 | D 2.63 | A 2.33 | C 2.92 | E 2.76 | I 2.21 | H 3.78
E9: W 4.55 | S 1.63 | C 1.88 | I 3.16 | D 3.91 | K 3.5 | P 2.49 | Q 2.61 | G 1.71 | Y 1.67 | N 2.21 | R 4
F4: M 2.56 | Y 2.36 | K 2.57 | S 2.7 | Q 2.99 | N 2.21 | H 2.09 | V 3.48 | A 4 | I 1.48 | G 3.56 | W 1.29
Y6: P 1.54 | F 1.65 | N 2.01 | L 3.99 | I 2.85 | H 2.85 | S 4.37 | M 2.17 | A 1.41 | D 2.42 | K 2.12 | T 3.44 | W 3.85 | R 2.78 | E 1.79
E10: T 1.62 | C 1.36 | A 3.28 | D 2.75 | W 2.69 | H 2.68 | N 2.86 | R 2.41 | I 2.56 | P 2.76 | L 2.35
I3: D 3.59 | R 3.57 | A 1.69 | P 3.06 | H 1.62 | Y 3.43 | G 2.35 | M 3.13 | E 4 | S 2.73 | N 3.08 | T 1.54 | F 2.89 | L 2.25

Variants of: B2
Experiment: as above
Conditions: c terminus: a fixed tail appended

Protein stability index: each site, then its substitutions
G24: H 4.48 | Q 4.14 | Y 3.92 | K 4.57 | F 3.56 | M 3.73 | P 4.13 | R 3.81 | I 3.83 | V 4.01 | W 4.04 | N 4.61 | D 4.87 | L 4.03
